In patent US9631180B2, “Recombinant manganese oxidase” (OREGON HEALTH & SCIENCE UNIVERSITY, priority 2013, dated 2017):

Columns and labels:
[1] = system: B. licheniformis CotA; conditions: described in Koschorreck K et al, 2008; cited from earlier work
[2] = system: Bacillus subtilis CotA; conditions: described in Durão P et al, 2008; cited from earlier work
[3] = Fe(II) oxidation kinetics, FerroZine quench assay; format: biochemical; conditions: pH 5
Method: (§1) Kinetic experiments were performed on the Molecular Devices SpectraMax® M2 microplate reader spectrophotometer at 22° C. with purified protein. […] Reactions were carried out with 10 μg Mnx (final 240 nM) 100 mM in phosphate-citrate buffer pH 3-8 and 20 mM CHES, HEPES, and MES at pH 7-10. Dimethoxyphenol (DMP) oxidation was followed by measuring the increase in absorbance at 468 nm and ε=49.6 mM-1 cm-1. These assays were performed in at least two independent trials in triplicate. Fe(II) (ferrous ammonium sulfate) oxidation was measured by quenching 200 μl reactions with 50 μl of the Fe(II) chelating colorimetric assay FerroZine® (15 mM) and a ferrous ammonium sulfate standard curve, noting the absorbance at 570 nm. Fe(II) oxidation reactions were performed with 10 μg recombinant Mn oxidase complex in 100 mM Na acetate-acetic acid buffer (pH 4-5.5). Mn(II) (MnCl2) oxidation in 20 mM HEPES (pH 7-8.5) was measured by quenching 5 μl of 200 μl reactions with 195 μl leucoberbelin blue (LBB) colorimetric reagent and reading the absorbance at 618 nm. […] These slopes were converted to the appropriate kinetic units, plotted, and fit with nonlinear regressions determined by comparing best fit values in the same software. KM and Vmax were determined and reported as KM and kcat=Vmax/[enzyme].

[4] = 2,6-DMP oxidation kinetics, absorbance at 468 nm; format: biochemical; conditions: Phosphate-citrate buffer
Method: as §1

[5] = Mn(II) oxidation kinetics, leucoberbelin blue (LBB) quench assay; format: biochemical
Method: (§2) Kinetic experiments were performed on the Molecular Devices SpectraMax® M2 microplate reader spectrophotometer at 22° C. with purified protein. […] Reactions were carried out with 10 μg Mnx (final 240 nM) 100 mM in phosphate-citrate buffer pH 3-8 and 20 mM CHES, HEPES, and MES at pH 7-10. Dimethoxyphenol (DMP) oxidation was followed by measuring the increase in absorbance at 468 nm and ε=49.6 mM-1 cm-1. These assays were performed in at least two independent trials in triplicate. Fe(II) (ferrous ammonium sulfate) oxidation was measured by quenching 200 μl reactions with 50 μl of the Fe(II) chelating colorimetric assay FerroZine® (15 mM) and a ferrous ammonium sulfate standard curve, noting the absorbance at 570 nm. Fe(II) oxidation reactions were performed with 10 μg recombinant Mn oxidase complex in 100 mM Na acetate-acetic acid buffer (pH 4-5.5). Mn(II) (MnCl2) oxidation in 20 mM HEPES (pH 7-8.5) was measured by quenching 5 μl of 200 μl reactions with 195 μl leucoberbelin blue (LBB) colorimetric reagent and reading the absorbance at 618 nm. Working LBB reagent was prepared by diluting concentrated stock (100 mg LBB in 25 ml 0.4% NaOH) 1:10 into 1% acetic acid. A KMnO4 standard curve was used to determine MnO2 oxide equivalent concentration. The metal substrate assays were performed in five independent trials then the high and low values were discarded from each concentration. The linear part of each curve was fit plotted and fit with a linear regression in GraphPad Prism®. These slopes were converted to the appropriate kinetic units, plotted, and fit with nonlinear regressions determined by comparing best fit values in the same software. KM and Vmax were determined and reported as KM and kcat=Vmax/[enzyme].

[6] = O2 consumption during Mn oxidation, Clark type electrode; format: biochemical; conditions: for lag time before O2 consumption is detected: after addition of MnCl2, across all runs
Method: Also indicative of MCOs is the consumption of O2 and its reduction to H2O, terminating electron transfer at the trinuclear Cu center. O2 consumption was measured on a Clark type electrode during Mn oxidation by the recombinant Mn oxidase complex. Following the addition of MnCl2 to the enzyme, there is about a 30 s lag time before O2 consumption is detected across all runs (FIG. 7A). Starting with a higher concentration of MnCl2, results in a faster initial velocity of O2 consumption (FIG. 7B). […] This stoichiometry supports the MCO mechanism of the four electron reduction required to generate 2 mol H2O from 1 mol O2.
Oxygen consumption was measured on a Rank Brothers LTD model 10 electrode with the polarizing voltage set to 630 mV. The 2 ml water-jacketed reaction cell was kept at 37° C. using a water bath. The instrument was calibrated by taking a zero measurement with Ar purged water and a 100% measurement with atmospheric oxygenated water assuming 214 μM O2 at […]. A computer interfaced with the electrode measured 02 every 1 s. Data collection began about 1 min before 10 μL of 1 mg/ml Mnx protein (^˜24 nM final if mass of recombinant Mn oxidase complex is 211 kDa) was added through the 2 mm diameter opening in the cap and allowed to equilibrate with 37° C. 20 mM HEPES pH 7.8 50 mM NaCl. Another minute of baseline reading was taken before adding 10 μL of various concentrations of MnCl2. The data was plotted Time (min) vs. % O2 remaining, if addition of MnCl2 is t=0. The initial O2 consumption velocities of all runs were plotted against starting MnCl2 concentration. Total O2 consumed was calculated by taking the difference of final from initial O2 concentrations then plotted against MnCl2 concentration and fitted with a linear regression, forced through the xy origin.

[7] = substrate: CCn1c(=NN=c2sc3cc(S(=O)(=O)O)ccc3n2CC)sc2cc(S(=O)(=O)O)ccc21; assay: purified protein, by the assay type; format: biochemical, Bacillus sp. PL-12; conditions: other: ABTS, 22° C., 420 nm
Method: (§3) FIG. 8B is a plot showing the initial oxidation velocity of DMP plotted against initial substrate concentration in a reaction catalyzed by the recombinant Mn oxidase complex. […]
(§4) All plots in FIGS. 8A, 8B, and 8C were fitted with either Michaelis-Menten or allosteric sigmoidal functions as appropriate.
as §2, with “Dimethoxyphenol (DMP) oxidation was followed by measuring the increase in absorbance at 468 nm and ε=49.6 mM-1 cm-1.” left out

[8] = substrate: COc1cccc(OC)c1O; assay: purified protein, by the assay type; format: biochemical, Bacillus sp. PL-12; conditions: other: 2,6-DMP, pH 8, HEPES, 22° C., 468 nm, Michaelis-Menten, pH 8.0
Method: as §3, §4
as §2, with “Dimethoxyphenol (DMP) oxidation was followed by measuring the increase in absorbance at 468 nm and ε=49.6 mM-1 cm-1.” left out

[9] = pH 4.5, phosphate-citrate buffer, Michaelis-Menten, pH 4.5
[10] = pH 8, HEPES, allosteric sigmoidal function, pH 8.0

Molecule: CCn1c(=NN=c2sc3cc(S(=O)(=O)O)ccc3n2CC)sc2cc(S(=O)(=O)O)ccc21 [ABTS, 2,2′-azino-bis(3-ethylbenzthiazoline-6-sulphonic acid)]
- kcat [1]: 322 s⁻¹
- Km [2]: 6.5 µM
- kcat [2]: 83 s⁻¹

B1: recombinant Mn oxidase complex: recombinantly produced Bacillus sp. PL-12 manganese oxidase complex comprising MnxG, MnxE and MnxF, expressed in E. coli (protein, listed as Bacillus sp.)
chain 1: HVFHYHVHQWLGDSSNINAEILDAQSISPQTHYSIQPLYGLGSLHGAIGDSIIHCHLYPHFGIGMWGINRVFDTLQDGSQCYPNGVRIDALKPLPDRPAPPKPTREKPGFPNFIPGKVGYKAPRPPLGIVGGREMTELERNAAIPNPRPGAVFVDPCLDQDPVVVEFNVSAIEMPVVYNKQGWHDPKARFYVMDEDLDDILSGKKEPEPLVFHVPAGTCIRMNYTNRMPHILDGDAFQLVTRTYENGFHIHFVKFDVLACDGGNVGWNYDSAVLPGQTIRYEWYAETELKAWFFHDHLF
chain 2: MHDSPLKSLSAASNVASVNDPLFDFFNKHMGKQILIITESSQLNILGQTFRPIFCGKVAEVEPGHLTLSPVTIKILNAPFHKFPIPLSIPFEKIAHFTTDVDCSMRIPLV
chain 3: MEALFPMSTDYSKMTDVNEIHDSAILEHFRNGIGHKTLVISPSYPYMFVGIIKELIGDTVMIDVETTHFAQLENREWYIHIHNIEVFYIERPGAPKIPKLEDY
- Fe(II) kcat [3]: 0.0744 ± 0.00779 s⁻¹
- Km [3]: 9 µM
- 2,6-DMP oxidation activity [4]: inactive
- pH optimum of Mn oxidation [5]: 7.8
- Mn(II) K0.5 ([5]; HEPES dialyzed protein): 123 ± 7.00 µM
- Mn(II) kcat ([5]; HEPES dialyzed protein): 16.1 ± 0.941 s⁻¹
- Mn(II) K0.5 ([5]; Tris dialyzed protein): 134.6 ± 9.16 µM
- Mn(II) kcat ([5]; Tris dialyzed protein): 12.9 ± 0.758 s⁻¹
- lag time before O2 consumption is detected [6]: ~30 s
- lag time before O2 consumption is detected ([6]; listed as recombinant Mnx complex): about 30 s
- slope of MnCl2 added vs. O2 consumed ([6]; linear regression forced through the origin, 37° C., HEPES pH 7.8): about 0.252±0.0149

B2: recombinant Bacillus sp. PL-12 Mn oxidase complex (Mnx; MnxE3F3G), MnxG (SEQ ID NO: 7), MnxE (SEQ ID NO: 5) and MnxF (SEQ ID NO: 6) (Bacillus sp. PL-12) (protein)
chain: MLRKFHVVGISTRIVVNTFGDHNPNGRIYVLKENESKLKDLVRKNPYKPIDLVQPLAIRANEGDIVEILFENQLSFSAGMHFQEADYSVLSSDGADAGYNPDTTVEPGGEILYRLNVNQEGICFFTDLGNVSSTEQGSSVQGLFGALLVQKRGSSWTDPVTGGPINSGVYADIHHPFLPSFREYAWFFNDEMEIRDLTGERPLNPMTNQEAESFHGVNLRYEPMTNRKRLMEAGVVCPDCDSEEVHHDSWVFGDPATPILRGYVGDPAVIRLIHGGVKETHVFHYHVHQWLGDSSNINAEILDAQSISPQTHYSIQPLYGLGSLHGAIGDSIIHCHLYPHFGIGMWGMNRVFDTLQDGSQCYPNGVRIKALMPLPDRPEPPKPTPEKPGFPNFIPGKVGYKAPRPPLGIVGGREMTELERNAAIENPRPGAVFVDPCLDQDPVVVEFNVSAIEMPVVYNKQGWHDPKARFYVMDEDLDDILSGKKEPEPLVFHVPAGTCIRMNYTNRMPHILDGDAFQLVTRTYENGFHIHFVKFDVLACDGGNVGWNYDSAVLPGQTIRYEWYAETELKAFFFHDHLFANSHQQHGVFGAGVIQPRFSKFLDSRTGDEVDHGTQISVEHPLIPDYRDQTLFVHDFALLFDKNGRPIQPPEYPGSEDDPGVFGVNFKCEPLKFRLGEDCDPAYSFSSYVHGDPVTPILRAYEGDPIRIRLLQGAHEESHSFNIHGLRWKEERPDLGSSMKAQQHIGISESFTFETEIPASGDYLWAFEDEEDVWLGTWGLIRAYKGRMEDLIVLTDREALPEGSAETPKPTGKPPEKANPLASLPPGAYQGSPVKKFEVVAFQTPIQYNSYGDHDPYGIIFALKEDVEDILTGKKNPVPLILRANVGDLVEVTLTSELKKELFPFQDGIHPYPPVKEQSFYPPSLRISLHTSLLNYDVKTSSGDTVGYNPDQTVGPGETITYRWFVDGQFGMCSMWDMADLRNHRSFGTFGAFVAESRFTTYLDPYSLEKAITGENVILRHPLLPATREFVLILHDGVRLEDKDGKVIIDPMDGVVPDTEELEEVDTYDYGSRGFNYRSERLINRYKEHPVMHELFSSEVFGDPATPLFEAYPGEPVVMRITTPAERRRAHTFHLHGHYWKFDSKDLDSRIQSFLGHMVTGHTDDLRLIGGAGGVFNFPGDYLYRSGNIRWDIELGMWGIFRVHKDSKENLPRLEEVEGGWDNEEKA
notes: Cu-loaded; purified ~230 kDa complex of MnxG, MnxE and MnxF; MnxD not found by MS
- Km [7, 9]: 456 ± 23.3 µM
- kcat [7, 9]: 0.206 ± 0.0136 s⁻¹
- Km [7, 10]: 3126 ± 391 µM
- kcat [7, 10]: 0.0595 ± 0.00891 s⁻¹
- Km [8]: 576 ± 163 µM
